Laboratory results: patent publication US20240376216A1 (NINGBO T MAXIMUM BIOPHARMACEUTICALS, published 2024)

Target: T1, IL13Rα2 on U251-LG target cells (UniProt Q14627 27-380, limits assumed)
T1 sequence (looked up): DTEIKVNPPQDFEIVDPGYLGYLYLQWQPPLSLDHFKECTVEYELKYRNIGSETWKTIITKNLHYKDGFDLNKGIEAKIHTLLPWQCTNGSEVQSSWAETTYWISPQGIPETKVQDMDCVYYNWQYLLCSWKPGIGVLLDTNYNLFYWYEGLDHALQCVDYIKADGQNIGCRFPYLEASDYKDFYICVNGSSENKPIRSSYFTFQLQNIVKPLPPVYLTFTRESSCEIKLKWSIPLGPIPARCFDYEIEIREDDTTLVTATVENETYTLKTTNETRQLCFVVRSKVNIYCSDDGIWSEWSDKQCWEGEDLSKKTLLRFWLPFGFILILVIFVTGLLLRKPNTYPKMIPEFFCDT
Test: cell-based or functional assay

B1: anti-IL13Rα2 CAR VLVH (murine) (other)
chain: DIVMTQSHKFISTSVGDRVSITCKASQDVGTAVAWYQQIPGQSPKLLIYSASYRSTGIPDRFTGSGSGTDFSFIISSVQAEDLALYYCQHHYSAPWTFGGGTTLDIKGGGGSGGGGSGGGGSEVQLVESGGDLVRPGGSLQLSCAASGFTFSRNGMSWVRQTPDRRLEWVATVSSGGSYIYYADSVKGRFTISRDNARNTLYLQMSSLKSEDTAMYYCARQGTTALATRFFDVWGAGTTVTVSSFVPVFLPAKPTTTPAPRPPTPAPTIASQPLSLRPEACRPAAGGAVHTRGLDFACDIYIWAPLAGTCGVLLLSLVITLYCNHRNKRGRKKLLYIFKQPFMRPVQTTQEEDGCSCRFPEEEEGGCELRVKFSRSADAPAYQQGQNQLYNELNLGRREEYDVLDKRRGRDPEMGGKPRRKNPQEGLYNELQKDKMAEAYSEIGMKGERRRGKGHDGLYQGLSTATKDTYDALHMQALPPR
killing efficiency (lysis of target cells by luciferase activity, 24 h co-culture, effector-to-target ratio 2:1): > 90%
